What all share (test): affinity purification with mass spectrometry
The target in experiment [1] is Nuc3, disk patch 3 mutant nucleosome (hH3.2x10, hH4x24, hH2B.Cx9), biotinylated 185 bp 601 DNA (human) (UniProt P20671).
Experiment [2] deals with Nuc2, disk patch 2 mutant nucleosome (hH2A.Dx2, hH2B.Cx8), biotinylated 185 bp 601 DNA (human) (UniProt Q71DI3).
The target in experiment [3] is Nuc1, acidic patch mutant nucleosome (hH2A.Dx10), biotinylated 185 bp 601 DNA (human) (UniProt P62807).

Chain of RUVBL1 (P60122 whole entry): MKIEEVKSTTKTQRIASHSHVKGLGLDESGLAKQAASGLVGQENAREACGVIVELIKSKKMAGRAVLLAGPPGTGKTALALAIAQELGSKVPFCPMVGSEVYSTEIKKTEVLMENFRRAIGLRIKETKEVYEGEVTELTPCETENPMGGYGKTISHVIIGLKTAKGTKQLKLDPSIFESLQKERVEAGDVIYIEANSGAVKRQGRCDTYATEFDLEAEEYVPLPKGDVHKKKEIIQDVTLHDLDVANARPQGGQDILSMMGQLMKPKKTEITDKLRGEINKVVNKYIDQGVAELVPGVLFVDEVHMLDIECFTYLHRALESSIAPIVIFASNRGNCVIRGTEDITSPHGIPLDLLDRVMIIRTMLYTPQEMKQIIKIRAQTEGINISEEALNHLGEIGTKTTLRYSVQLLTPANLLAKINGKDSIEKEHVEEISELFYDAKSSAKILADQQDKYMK
Chain of RUVBL2 (Q9WTM5 whole entry): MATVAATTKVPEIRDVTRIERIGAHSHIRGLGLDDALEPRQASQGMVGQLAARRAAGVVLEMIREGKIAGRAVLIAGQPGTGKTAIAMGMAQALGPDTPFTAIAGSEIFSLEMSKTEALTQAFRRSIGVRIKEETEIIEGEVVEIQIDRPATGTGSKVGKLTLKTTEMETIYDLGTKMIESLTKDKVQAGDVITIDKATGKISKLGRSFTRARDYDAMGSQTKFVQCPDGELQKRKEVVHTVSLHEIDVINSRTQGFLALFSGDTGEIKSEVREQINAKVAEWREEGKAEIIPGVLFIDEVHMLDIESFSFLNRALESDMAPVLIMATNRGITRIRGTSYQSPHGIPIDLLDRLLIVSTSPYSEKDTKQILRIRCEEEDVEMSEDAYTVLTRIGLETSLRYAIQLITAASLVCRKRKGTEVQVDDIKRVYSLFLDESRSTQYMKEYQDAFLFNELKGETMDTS
Chain of RNF2 (RING finger protein 2) (Q9CQJ4 whole entry): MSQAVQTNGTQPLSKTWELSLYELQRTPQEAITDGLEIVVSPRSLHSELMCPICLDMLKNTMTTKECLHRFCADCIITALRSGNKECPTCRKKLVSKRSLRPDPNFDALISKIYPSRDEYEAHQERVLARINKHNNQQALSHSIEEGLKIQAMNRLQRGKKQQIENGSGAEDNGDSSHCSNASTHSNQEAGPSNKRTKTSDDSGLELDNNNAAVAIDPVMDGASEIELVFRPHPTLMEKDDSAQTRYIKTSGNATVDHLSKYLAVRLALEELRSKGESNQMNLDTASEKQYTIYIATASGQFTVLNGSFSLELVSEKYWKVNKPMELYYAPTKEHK

In experiment [1], “RUVBL2 (from UniProt Q9WTM5 1-463) (natural protein)” displayed a fold decrease in binding vs wild-type nucleosome of 1.38 fold.
Take “HMGN2 (high mobility group nucleosome-binding domain-containing protein 2) (from UniProt P09602 1-90) (natural protein)”: the fold decrease in binding vs wild-type nucleosome in experiment [2] is 13 fold; in experiment [3], 27 fold.
“RNF2 (RING finger protein 2) (from UniProt Q9CQJ4 1-336) (natural protein)” registered a fold decrease in binding vs wild-type nucleosome in experiment [3] of 1.5 fold.
Same read-out and setting: with “DNMT1 DNA methyltransferase (from UniProt P13864 1-1620) (enzyme)” the figure was 1.72 fold.
Substance “RUVBL1 (from UniProt P60122 1-456) (natural protein)” returned a fold decrease in binding vs wild-type nucleosome in experiment [1] of 1.33 fold.
The substance “methylcytosine dioxygenase Tet1 (from UniProt Q3URK3 1-2039) (enzyme)” gave a fold decrease in binding vs wild-type nucleosome in experiment [3] of 1.8 fold.
